The values that follow come from patent US7252997.

The target in assay [1] is AAV2 capsid mutant I-587 (P1 peptide inserted after amino acid 587, VP1 numbering) (adeno-associated virus serotype 2 (AAV2)) (UniProt P03135). Description: capsid ELISA with A20 MAb on purified virus stock.
The target of assay [2] is Wild-type AAV2 capsid (adeno-associated virus serotype 2 (AAV2)) (UniProt P03135). In words: capsid ELISA with A20 MAb on purified virus stock.

Turning to A20 monoclonal antibody, the titer with A20 capsid ELISA came out at 3e+12 particles/ml in assay [1] and 6e+12 particles/ml in assay [2].
